B1: RHOBTB3 (parent)
chain: STTEGIQLAKELGATYLELHSLDD
B2: FBF1 (parent)
chain: LQRASILDMRRDHEEQLQRLKLLK

Variants of: B1
Assay: protein stability index of a GFP-peptide fusion (GPS, HEK-293T) (PSI 1-6); higher = more stable
Details: c terminus: a fixed tail appended
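Further: lentivirally expressed fusions sorted by FACS into six bins by GFP to DsRed ratio, PSI derived from sequencing read proportions per bin multiplied by bin number.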

Protein stability index of substitutions, site by site:
D24: E 3.35, K 3.02, Y 2.7
L17: A 5.04
A9: S 4.24
I6: Y 3.22
Y16: N 5.25
E11: A 1.53, I 2.39, P 3.92
L8: N 4.57, P 4.92
H20: F 2.75, Q 3.13
L22: N 4.68, S 4.47, D 4.96
G5: N 4.27, S 3.56, L 3.64
K10: Q 3.57, S 3.13, V 2.06
A14: T 4.18
T3: K 3.42, M 2.31
G13: C 2.88
L12: N 4.77
S1: T 3.56, N 3.19
E4: D 3.44, M 2.27

Variants of: B2
Assay: as above
Details: c terminus: a fixed tail appended

Protein stability index: each site, then its substitutions
L22: R 3.74, Y 3.15, V 3.92, D 3.63, G 3.44, P 4.24, I 3.77, A 3.18, T 4.35, Q 4.27, F 3.5, S 4.21, M 3.44, W 3.27, K 3.74, H 4.1, N 4.4, E 4.33, C 3.94
R19: I 2.11, V 2.48, A 3.48, C 2.65, Q 3.33, W 2.25, P 3.75, Y 2.72, T 2.85, K 3.14, M 3.03, L 2.22, S 3.48, D 4.26, H 2.78, N 3.89, G 3.75, F 1.69, E 4.25
Q18: Y 2.78, W 2.45, I 2.47, F 2.19, D 3.58, T 3.36, M 2.86, E 3.3, K 3.51, H 3.02, N 3.6, P 3.26, S 3.19, R 3.37, C 3.1, L 2.92, V 3.11, G 3.79, A 3.7
L20: Y 3.83, Q 4.33, N 4.22, H 3.96, E 4.49, K 4.1, P 4.21, G 4.34, M 4, T 4.09, S 4.11, V 3.79, I 3.3, A 3.79, C 4.17, D 4.45, W 2.78, F 3.06, R 4.13
K21: H 3.29, C 2.65, M 3.55, V 3.07, S 3.21, P 4.75, E 4.02, L 3.01, W 2.85, D 3.88, R 3.28, A 3.59, T 3.38, Q 3.18, N 3.57, F 2.85, G 3.49, I 2.96, Y 2.98
L17: W 2.96, Y 3.55
L23: M 4.21, P 3.89, W 3, Q 4.15, I 3.88, K 4.22, C 4.09, S 4.42, F 3.88, R 3.94, D 4.62, T 4.03, E 4.8, Y 3.12, G 3.94, A 4.14, N 4.54, V 3.69, H 4.26
K24: Y 2.81, D 4.12, Q 2.68, P 3.55, N 3.55, R 3.3, T 2.87, M 4.03, C 1.98, S 2.82, W 2.1, L 1.87, F 2.65, G 3.2, E 3.52, V 1.92, H 3.44, A 2.19, I 2.28

— the supplement of paper PMC10567573
